The values below come from paper PMC4041747, “Structural and Mutagenic Analysis of the RM Controller Protein C.Esp1396I” (PLoS ONE, 2014).

Data set [1] has as its system C.Esp1396I R46A (Enterobacter sp. RFL1396?). The experiment in a line: SPR. As to conditions: SPR (Biacore T-100): 130 mM NaCl, 10 mM HEPES pH 7.4, 0.05% Tween-20; temperature not stated; 20-1000 nM total protein.
The subject of data set [2] is C.Esp1396I S52A (Enterobacter sp. RFL1396?). The experiment in a line: SPR. As to conditions: SPR (Biacore T-100): 130 mM NaCl, 10 mM HEPES pH 7.4, 0.05% Tween-20; temperature not stated; 20-1000 nM total protein. A general note: Surface plasmon resonance follows binding to a sensor surface in real time, without labels.
The subject of data set [3] is C.Esp1396I Y37A (Enterobacter sp. RFL1396?). Description: SPR. As to conditions: SPR (Biacore T-100): 130 mM NaCl, 10 mM HEPES pH 7.4, 0.05% Tween-20; temperature not stated; 20-1000 nM total protein.
For data set [4], the system named is C.Esp1396I Y37F (Enterobacter sp. RFL1396?). Description: SPR. As to conditions: SPR (Biacore T-100): 130 mM NaCl, 10 mM HEPES pH 7.4, 0.05% Tween-20; temperature not stated; 20-1000 nM total protein.
Data set [5] has as its system C.Esp1396I wild type (Enterobacter sp. RFL1396?). The experiment in a line: SPR. The note with it: SPR (Biacore T-100): 130 mM NaCl, 10 mM HEPES pH 7.4, 0.05% Tween-20; temperature not stated; 20-1000 nM total protein.
Data set [6] deals with the molecule itself. The experiment in a line: crystal structure; free protein crystals, protein at 2-14 mg/mL, diffraction data at 100 K; dimer of the protein with itself.

As usually defined, the Kd is the concentration at which binding is half-saturated. A higher Kd goes with weaker binding.

Positions count from the first letter of the chain named. Names and notes keep the numbering of the source.

For OM operator duplex, the Kd in data set [1] was 15.8 nM; in data set [2] it was 2.6 nM; in data set [3], 5.5 nM; in data set [4] it was 1.8 nM; in data set [5], 0.51 nM.

B1: C.Esp1396I wild type (RM controller protein) (natural protein)
chain: MESFLLSKVSFVIKKIRLEKGMTQEDLAYKSNLDRTYISGIERNSRNLTIKSLELIMKGLEVSDVVFFEMLIKEILKHD
notes: controller (C) protein C.Esp1396I of the Esp1396I restriction-modification system; Residues may be left at the N-terminus after thrombin cleavage; also called native protein; WT; not shown: His6, N-terminal, cleaved
Regarding B1, the binding result in data set [6] was “binds”.

B2: C.Esp1396I Y37A mutant (natural protein)
chain: B1 chain with Y37A
notes: controller (C) protein C.Esp1396I with Y37A; Gene synthesised by GenScript; not shown: His6, N-terminal, cleaved
On to B2, for which the binding result in data set [6] is listed as “binds”.

B3: C.Esp1396I R46A mutant (natural protein)
chain: B1 chain with R46A
notes: controller (C) protein C.Esp1396I with R46A; Crystallised in two space groups (C2 and P3(2)); not shown: His6, N-terminal, cleaved
Regarding B3, the binding result in data set [6] is recorded as “binds”.

B4: C.Esp1396I S52A mutant (natural protein)
chain: B1 chain with S52A
notes: controller (C) protein C.Esp1396I with S52A; Gene synthesised by GenScript; not shown: His6, N-terminal, cleaved
As to B4, the binding result in data set [6] was “binds”.

B5: C.Esp1396I Y37F mutant (natural protein)
chain: B1 chain with Y37F
notes: controller (C) protein C.Esp1396I with Y37F; Gene synthesised by GenScript; not shown: His6, N-terminal, cleaved
B5: the binding result in data set [6] is “binds”.

B6: C.Esp1396I T36A mutant (natural protein)
chain: B1 chain with T36A
notes: controller (C) protein C.Esp1396I with T36A; not shown: His6, N-terminal, cleaved
As for B6, in data set [6], the binding result was “binds”.
